In article PMC12241546, “PRELP functions via multiple interactions with intrinsically weak affinity relying on ECM anchoring and remodeling” (Scientific Reports, 2025):

B1: Recombinant extracellular domain of human p75NTR (low-affinity nerve growth factor receptor) (receptor, UniProt P08138 29-189, looked up)
chain: KEACPTGLYTHSGECCKACNLGEGVAQPCGANQTVCEPCLDSVTFSDVVSATEPCKPCTECVGLQSMSAPCVEADDAVCRCAYGYYQDETTGRCEACRVCEAGSGLVFSCQDKQNTVCEECPDGTYSDEANHVDPCLPCTVCEDTERQLRECTRWADAECE
notes: also called p75NTR ectodomain; source: Sf9 cells, purified from the culture supernatant (Ni-NTA, SEC)
B2: Recombinant human full-length PRELP (proline/arginine-rich end leucine-rich repeat protein) (natural protein, UniProt P51888 21-382, looked up)
chain: QPTRRPRPGTGPGRRPRPRPRPTPSFPQPDEPAEPTDLPPPLPPGPPSIFPDCPRECYCPPDFPSALYCDSRNLRKVPVIPPRIHYLYLQNNFITELPVESFQNATGLRWINLDNNRIRKIDQRVLEKLPGLVFLYMEKNQLEEVPSALPRNLEQLRLSQNHISRIPPGVFSKLENLLLLDLQHNRLSDGVFKPDTFHGLKNLMQLNLAHNILRKMPPRVPTAIHQLYLDSNKIETIPNGYFKSFPNLAFIRLNYNKLTDRGLPKNSFNISNLLVLHLSHNRISSVPAINNRLEHLYLNNNSIEKINGTQICPNDLVAFHDFSSDLENVPHLRYLRLDGNYLKPPIPLDLMMCFRLLQSVVI
notes: human PRELP, amino acid residues 21-382 (Uniprot numbering); source: Mimic Sf9 cells, purified from the supernatant (DDDDK-tagged Protein Purification Gel, Benzonase, SEC); not shown: FLAG, C-terminal, kept

Key:
Details in all cases: both partners purified
[1] = biological target: T1, Recombinant mature TGFβ1 dimer (transforming growth factor β1) (human, UniProt P01137 279-390); assay: SPR; Biacore T200; PRELP proteins immobilised on CM5 by amine coupling (about 400 RU; chPRELP about 600 RU); TGFβ1 or TGFβRII injected at 30 µL/min; 10 mM HEPES pH 7.5, 150 mM NaCl, 50 mM arginine-HCl, 0.05% Tween-20, 15 °C; global fitting
T1 construct: mature TGFβ1 cut from the human TGFβ1 pro-protein (expressed as amino acid residues 30-390, Uniprot, with C33S in the pro-region); source: ExpiCHO cells, transfected
T1 sequence (P01137 279-390): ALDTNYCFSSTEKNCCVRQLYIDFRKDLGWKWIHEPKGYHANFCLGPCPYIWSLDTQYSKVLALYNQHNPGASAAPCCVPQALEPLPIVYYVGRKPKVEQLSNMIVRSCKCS

[2] = biological target: T2, Recombinant extracellular domain of human IGFI-R (insulin-like growth factor I receptor) (human, UniProt P08069 31-935); assay: SPR; Biacore T200; PRELP proteins immobilised on CM5 by amine coupling (about 4000 RU; chPRELP about 600 RU for IGFI-R, 2000 RU for p75NTR); IGFI-R or p75NTR injected at 30 µL/min; 10 mM HEPES pH 7.5, 150 mM NaCl, 0.05% Tween-20, 15 °C; equilibrium curve fitting
T2 construct: extracellular domain of human IGFI-R, amino acid residues 31-935 (Uniprot); also called IGFI-R ectodomain; source: ExpiCHO cells, purified from the culture supernatant (Ni-NTA, SEC)
T2 sequence (P08069 31-935): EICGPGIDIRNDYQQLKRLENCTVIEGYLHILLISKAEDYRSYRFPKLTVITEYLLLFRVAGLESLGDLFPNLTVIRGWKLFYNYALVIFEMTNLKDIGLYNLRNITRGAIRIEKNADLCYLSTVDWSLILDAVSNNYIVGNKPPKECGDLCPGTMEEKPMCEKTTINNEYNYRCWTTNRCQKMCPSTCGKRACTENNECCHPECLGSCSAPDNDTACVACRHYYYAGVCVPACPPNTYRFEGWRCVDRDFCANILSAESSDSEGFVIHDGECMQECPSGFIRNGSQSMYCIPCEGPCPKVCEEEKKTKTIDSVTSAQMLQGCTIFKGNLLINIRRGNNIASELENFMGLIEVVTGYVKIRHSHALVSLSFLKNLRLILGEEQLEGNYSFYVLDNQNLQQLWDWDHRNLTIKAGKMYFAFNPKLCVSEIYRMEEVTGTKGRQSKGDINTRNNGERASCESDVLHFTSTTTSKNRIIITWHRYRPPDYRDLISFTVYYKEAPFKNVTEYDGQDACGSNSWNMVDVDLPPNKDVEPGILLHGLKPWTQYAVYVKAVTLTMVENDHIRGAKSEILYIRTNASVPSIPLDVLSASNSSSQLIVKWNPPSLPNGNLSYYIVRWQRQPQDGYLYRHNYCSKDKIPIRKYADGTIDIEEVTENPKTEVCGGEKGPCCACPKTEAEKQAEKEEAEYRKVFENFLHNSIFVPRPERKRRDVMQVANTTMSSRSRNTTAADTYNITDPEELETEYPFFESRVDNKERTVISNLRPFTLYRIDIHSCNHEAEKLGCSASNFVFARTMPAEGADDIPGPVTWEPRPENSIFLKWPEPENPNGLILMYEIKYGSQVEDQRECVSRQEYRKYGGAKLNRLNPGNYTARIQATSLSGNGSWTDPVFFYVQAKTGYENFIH

[3] = biological target: B1; assay: as above
[4] = biological target: B2; assay: as above
[5] = biological target: T2, Recombinant extracellular domain of …; assay: as above; remark: listed apart in the source

Binder | Kd [1] | koff [1] | kon [1] | Kd [2] | Kd [3] | Kd [4] | Kd [5]
Recombinant chimeric PRELP (human PRELP 1-268 joined to Listeria monocytogenes internalin B 189-248) (other, signal peptide in the construct; human PRELP, amino acid residues 1-268 (Uniprot), N-terminal half portion with LRR1-7; also called chPRELP; source: Expi293 cells, transfected, purified from the culture supernatant (FLAG-tag purification, SEC)) QPTRRPRPGTGPGRRPRPRPRPTPSFPQPDEPAEPTDLPPPLPPGPPSIFPDCPRECYCPPDFPSALYCDSRNLRKVPVIPPRIHYLYLQNNFITELPVESFQNATGLRWINLDNNRIRKIDQRVLEKLPGLVFLYMEKNQLEEVPSALPRNLEQLRLSQNHISRIPPGVFSKLENLLLLDLQHNRLSDGVFKPDTFHGLKNLMQLNLAHNILRKMPPRVPTAIHQLYLDSNKIETIPNGYFKSFPNLDTLSLEDNQISDIVPLAGLTKLQNLYLSKNHISDLRALAGLKNLDVLELFSQECLNKPIN | 1.21 µM | 0.362 s⁻¹ | 241000 M⁻¹ s⁻¹ | 15.4 µM | 14.5 µM | – | –
B1 | – | – | – | – | – | 12.7 µM | –
N-terminal-truncated PRELP ΔNT50 (domain or fragment, secreted from insect cells (Mimic Sf9), possible N-glycans; C-terminal FLAG tag omitted. The start at 71 is 50 residues removed from the printed mature construct 21-382, just before the Cys-rich …) PDCPRECYCPPDFPSALYCDSRNLRKVPVIPPRIHYLYLQNNFITELPVESFQNATGLRWINLDNNRIRKIDQRVLEKLPGLVFLYMEKNQLEEVPSALPRNLEQLRLSQNHISRIPPGVFSKLENLLLLDLQHNRLSDGVFKPDTFHGLKNLMQLNLAHNILRKMPPRVPTAIHQLYLDSNKIETIPNGYFKSFPNLAFIRLNYNKLTDRGLPKNSFNISNLLVLHLSHNRISSVPAINNRLEHLYLNNNSIEKINGTQICPNDLVAFHDFSSDLENVPHLRYLRLDGNYLKPPIPLDLMMCFRLLQSVVI | 1.55 µM | 0.169 s⁻¹ | 75100 M⁻¹ s⁻¹ | 6.97 µM | 11.7 µM | – | –
N-terminal-truncated PRELP ΔNT24 (domain or fragment, secreted from insect cells (Mimic Sf9), possible N-glycans; C-terminal FLAG tag omitted. The start at 45 is 24 residues removed from the printed mature construct 21-382, which matches removal of the …) SFPQPDEPAEPTDLPPPLPPGPPSIFPDCPRECYCPPDFPSALYCDSRNLRKVPVIPPRIHYLYLQNNFITELPVESFQNATGLRWINLDNNRIRKIDQRVLEKLPGLVFLYMEKNQLEEVPSALPRNLEQLRLSQNHISRIPPGVFSKLENLLLLDLQHNRLSDGVFKPDTFHGLKNLMQLNLAHNILRKMPPRVPTAIHQLYLDSNKIETIPNGYFKSFPNLAFIRLNYNKLTDRGLPKNSFNISNLLVLHLSHNRISSVPAINNRLEHLYLNNNSIEKINGTQICPNDLVAFHDFSSDLENVPHLRYLRLDGNYLKPPIPLDLMMCFRLLQSVVI | 0.512 µM | 0.142 s⁻¹ | 277000 M⁻¹ s⁻¹ | 3.9 µM | 11.3 µM | – | –
B2 | – | – | – | – | – | – | 7.09 µM
